We go through 1 molecule from PMC11533527, “A yeast two-hybrid system to obtain triple-helical ligands from combinatorial random peptide libraries” (The Journal of Biological Chemistry, 2024).

A word on the IC50: it is the concentration that gives 50% inhibition. High values mean weaker potency in that assay, low ones greater potency in that assay.

Where only a bound is given, the exact number is not on record here.

Data set [1] deals with the molecule itself. Briefly: circular dichroism with thermal melting; peptides in PBS, heated at 95 °C, annealed at 4 °C overnight; [θ]225 followed from 4 to 85 °C; chains of one peptide forming a triple helix.
Data set [2] has as its target T1, glutathione S-transferase (GST)-PEDF-fusion protein (mouse, UniProt P97298 20-417).
T1 construct: pigment epithelium-derived factor (PEDF); also called GST-fused PEDF; recombinant PEDF
T1 sequence (looked up): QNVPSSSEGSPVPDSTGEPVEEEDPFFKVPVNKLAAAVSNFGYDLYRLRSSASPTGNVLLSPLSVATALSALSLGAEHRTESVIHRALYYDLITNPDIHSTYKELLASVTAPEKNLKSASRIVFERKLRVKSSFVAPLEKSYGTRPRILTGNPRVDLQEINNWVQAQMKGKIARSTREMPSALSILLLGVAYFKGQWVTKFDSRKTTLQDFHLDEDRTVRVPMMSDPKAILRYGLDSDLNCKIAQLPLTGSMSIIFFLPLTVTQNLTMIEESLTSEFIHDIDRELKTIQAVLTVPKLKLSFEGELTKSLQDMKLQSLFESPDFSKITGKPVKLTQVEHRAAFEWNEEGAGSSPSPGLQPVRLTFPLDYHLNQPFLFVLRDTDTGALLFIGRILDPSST
Briefly: ELISA; competitive ELISA: wells coated with 10 μg/ml collagen I; annealed peptides preincubated with 3 nM GST-PEDF for 10 min at room temperature in 20 mM HEPES-Na pH 7.4, 100 mM NaCl, 0.005% Tween 20; 90 min at 4 °C in the wells; HRP-anti-GST detection. The settings on record: both partners purified. (An ELISA detects its analyte on a solid surface through an enzyme-linked reagent.)

B1: synthetic triple-helical peptide pep8 (peptide)
chain: YPPGPPGPPGPPGPRGPRGLLGLPGPPGPPGPPGPPG
HELM: PEPTIDE1{Y.P.[Hyp].G.P.[Hyp].G.P.[Hyp].G.P.[Hyp].G.P.R.G.P.R.G.L.L.G.L.[Hyp].G.P.[Hyp].G.P.[Hyp].G.P.[Hyp].G.P.[Hyp].G.[am]}$$$$V2.0; N-terminus assumed
SMILES: CC(C)C[C@H](NC(=O)CNC(=O)[C@H](CCCNC(=N)N)NC(=O)[C@@H]1CCCN1C(=O)CNC(=O)[C@H](CCCNC(=N)N)NC(=O)[C@@H]1CCCN1C(=O)CNC(=O)[C@@H]1C[C@@H](O)CN1C(=O)[C@@H]1CCCN1C(=O)CNC(=O)[C@@H]1C[C@@H](O)CN1C(=O)[C@@H]1CCCN1C(=O)CNC(=O)[C@@H]1C[C@@H](O)CN1C(=O)[C@@H]1CCCN1C(=O)CNC(=O)[C@@H]1C[C@@H](O)CN1C(=O)[C@@H]1CCCN1C(=O)[C@@H](N)Cc1ccc(O)cc1)C(=O)N[C@@H](CC(C)C)C(=O)NCC(=O)N[C@@H](CC(C)C)C(=O)N1C[C@H](O)C[C@H]1C(=O)NCC(=O)N1CCC[C@H]1C(=O)N1C[C@H](O)C[C@H]1C(=O)NCC(=O)N1CCC[C@H]1C(=O)N1C[C@H](O)C[C@H]1C(=O)NCC(=O)N1CCC[C@H]1C(=O)N1C[C@H](O)C[C@H]1C(=O)NCC(=O)N1CCC[C@H]1C(=O)N1C[C@H](O)C[C@H]1C(=O)NCC(N)=O
notes: Triple helix by CD; annealed before use; source: synthetic peptide (Fmoc solid phase, RP-HPLC purified)
As to B1, the binding result in data set [1] is “binds”. In addition, the IC50 in data set [2] is greater than 10 µM.
